Laboratory results published in patent US7049080B2, “Process for detecting serine/threonine kinase activity” (priority 2000, dated 2006).

Legend:
[1] = molecular target: T1, MKK7 (Homo sapiens, UniProt O14733); settings: when max. activated; cited from earlier work
T1 construct: purchased Upstate Biotech 14-366
T1 sequence (O14733 1-419): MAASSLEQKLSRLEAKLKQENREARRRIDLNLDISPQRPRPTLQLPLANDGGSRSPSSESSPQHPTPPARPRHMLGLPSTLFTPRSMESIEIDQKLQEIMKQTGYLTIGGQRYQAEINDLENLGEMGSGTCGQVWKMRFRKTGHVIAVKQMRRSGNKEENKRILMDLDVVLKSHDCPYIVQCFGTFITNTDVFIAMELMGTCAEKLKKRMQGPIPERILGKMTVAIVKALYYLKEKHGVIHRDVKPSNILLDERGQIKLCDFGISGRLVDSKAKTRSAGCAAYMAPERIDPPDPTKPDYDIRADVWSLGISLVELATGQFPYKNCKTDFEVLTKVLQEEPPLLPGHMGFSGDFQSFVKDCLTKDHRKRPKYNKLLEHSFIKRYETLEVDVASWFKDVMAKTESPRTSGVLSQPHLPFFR

[2] = molecular target: T1, MKK7; test: FP measurements of MKK7 activity, time course, optimized conditions (Example 8); format: biochemical
Procedure: Fluorescence Polarization measurements of MKK7 activity (time course): In this experiment the assay conditions have been optimized. The reactions were stopped with EDTA. […] The following reagents have been used (explanations later on): […] The enzyme reactions were performed in Eppendorf reaction tubes at RT. Aliquots of 20 μl were withdrawn from the reactions at different time points and mixed with 10 μl STOP solution.

[3] = molecular target: T1, MKK7; test: FP measurements of MKK7 activity, time course (Example 7); format: biochemical; settings: 100 μM P1°
Procedure: Fluorescence Polarization measurements of MKK7 activity (time course): In this experiment, the time course has been investigated at P1^∘ substrate concentrations of 100 μM. The reactions were stopped with EDTA. The following reagents have been used (the compositions of the buffers and specifications of the reagents are explained in more detail later on): […] After addition of MKK7, the enzyme reactions were performed in Nunc chambers at RT. The samples were continuously measured at different time points by Fluorescence polarization.

B1: MKK7: MKK7 kinase, supplier Upstate Biotech cat. no. 14-366 (protein, UniProt O14733 2-419, looked up)
Dual specificity …: AASSLEQKLSRLEAKLKQENREARRRIDLNLDISPQRPRPTLQLPLANDGGSRSPSSESSPQHPTPPARPRHMLGLPSTLFTPRSMESIEIDQKLQEIMKQTGYLTIGGQRYQAEINDLENLGEMGSGTCGQVWKMRFRKTGHVIAVKQMRRSGNKEENKRILMDLDVVLKSHDCPYIVQCFGTFITNTDVFIAMELMGTCAEKLKKRMQGPIPERILGKMTVAIVKALYYLKEKHGVIHRDVKPSNILLDERGQIKLCDFGISGRLVDSKAKTRSAGCAAYMAPERIDPPDPTKPDYDIRADVWSLGISLVELATGQFPYKNCKTDFEVLTKVLQEEPPLLPGHMGFSGDFQSFVKDCLTKDHRKRPKYNKLLEHSFIKRYETLEVDVASWFKDVMAKTESPRTSGVLSQPHLPFFR
Specific activity [1]: Approximately 20 Units/mg
Fluorescence Polarization ([2]; NEB ab in STOP sol., MKK7 0.04 μM, 0 h): 147.2 mP
Fluorescence Polarization ([2]; NEB ab in STOP sol., MKK7 0.04 μM, 0.5 h): 141.5 mP
Fluorescence Polarization ([2]; NEB ab in STOP sol., MKK7 0.04 μM, 1 h): 140.2 mP
Fluorescence Polarization ([2]; NEB ab in STOP sol., MKK7 0.04 μM, 1.5 h): 135.8 mP
Fluorescence Polarization ([2]; NEB ab in STOP sol., MKK7 0.04 μM, 2 h): 134.2 mP
Fluorescence Polarization ([2]; NEB ab in STOP sol., MKK7 0.04 μM, 3 h): 138.2 mP
Fluorescence Polarization ([2]; NEB ab in STOP sol., MKK7 0.08 μM, 0 h): 143.3 mP
Fluorescence Polarization ([2]; NEB ab in STOP sol., MKK7 0.08 μM, 0.5 h): 139.1 mP
Fluorescence Polarization ([2]; NEB ab in STOP sol., MKK7 0.08 μM, 1 h): 133.6 mP
Fluorescence Polarization ([2]; NEB ab in STOP sol., MKK7 0.08 μM, 1.5 h): 122.1 mP
Fluorescence Polarization ([2]; NEB ab in STOP sol., MKK7 0.08 μM, 2 h): 115.8 mP
Fluorescence Polarization ([2]; NEB ab in STOP sol., MKK7 0.08 μM, 3 h): 125.0 mP
Fluorescence Polarization ([2]; NEB ab in STOP sol., MKK7 0.2 μM, 0 h): 148.2 mP
Fluorescence Polarization ([2]; NEB ab in STOP sol., MKK7 0.2 μM, 0.5 h): 130.2 mP
Fluorescence Polarization ([2]; NEB ab in STOP sol., MKK7 0.2 μM, 1 h): 114.0 mP
Fluorescence Polarization ([2]; NEB ab in STOP sol., MKK7 0.2 μM, 1.5 h): 102.8 mP
Fluorescence Polarization ([2]; NEB ab in STOP sol., MKK7 0.2 μM, 2 h): 99.2 mP
Fluorescence Polarization ([2]; NEB ab in STOP sol., MKK7 0.2 μM, 3 h): 119.4 mP
Fluorescence Polarization ([2]; NEB ab in reaction, MKK7 0.04 μM, 0 h): 150.0 mP
Fluorescence Polarization ([2]; NEB ab in reaction, MKK7 0.04 μM, 0.5 h): 128.5 mP
Fluorescence Polarization ([2]; NEB ab in reaction, MKK7 0.04 μM, 1 h): 125.7 mP
Fluorescence Polarization ([2]; NEB ab in reaction, MKK7 0.04 μM, 1.5 h): 112.9 mP
Fluorescence Polarization ([2]; NEB ab in reaction, MKK7 0.04 μM, 2 h): 109.7 mP
Fluorescence Polarization ([2]; NEB ab in reaction, MKK7 0.04 μM, 3 h): 78.6 mP
Fluorescence Polarization ([2]; NEB ab in reaction, MKK7 0.08 μM, 0 h): 138.5 mP
Fluorescence Polarization ([2]; NEB ab in reaction, MKK7 0.08 μM, 0.5 h): 122.5 mP
Fluorescence Polarization ([2]; NEB ab in reaction, MKK7 0.08 μM, 1 h): 105.9 mP
Fluorescence Polarization ([2]; NEB ab in reaction, MKK7 0.08 μM, 1.5 h): 86.4 mP
Fluorescence Polarization ([2]; NEB ab in reaction, MKK7 0.08 μM, 2 h): 84.5 mP
Fluorescence Polarization ([2]; NEB ab in reaction, MKK7 0.08 μM, 3 h): 65.0 mP
Fluorescence Polarization ([2]; NEB ab in reaction, MKK7 0.2 μM, 0 h): 137.2 mP
Fluorescence Polarization ([2]; NEB ab in reaction, MKK7 0.2 μM, 0.5 h): 101.4 mP
Fluorescence Polarization ([2]; NEB ab in reaction, MKK7 0.2 μM, 1 h): 83.1 mP
Fluorescence Polarization ([2]; NEB ab in reaction, MKK7 0.2 μM, 1.5 h): 78.1 mP
Fluorescence Polarization ([2]; NEB ab in reaction, MKK7 0.2 μM, 2 h): 72.1 mP
Fluorescence Polarization ([2]; NEB ab in reaction, MKK7 0.2 μM, 3 h): 59.4 mP
Fluorescence Polarization ([3]; MKK7 0.005 μM, 0 h): 131.5 mP
Fluorescence Polarization ([3]; MKK7 0.005 μM, 0.5 h): 137.4 mP
Fluorescence Polarization ([3]; MKK7 0.005 μM, 1 h): 136.8 mP
Fluorescence Polarization ([3]; MKK7 0.005 μM, 1.5 h): 136.9 mP
Fluorescence Polarization ([3]; MKK7 0.005 μM, 3 h): 138.1 mP
Fluorescence Polarization ([3]; MKK7 0.02 μM, 0 h): 135.4 mP
Fluorescence Polarization ([3]; MKK7 0.02 μM, 0.5 h): 140.3 mP
Fluorescence Polarization ([3]; MKK7 0.02 μM, 1 h): 140.9 mP
Fluorescence Polarization ([3]; MKK7 0.02 μM, 1.5 h): 139.7 mP
Fluorescence Polarization ([3]; MKK7 0.02 μM, 3 h): 140.0 mP
Fluorescence Polarization ([3]; MKK7 0.08 μM, 0 h): 133.5 mP
Fluorescence Polarization ([3]; MKK7 0.08 μM, 0.5 h): 137.6 mP
Fluorescence Polarization ([3]; MKK7 0.08 μM, 1 h): 135.8 mP
Fluorescence Polarization ([3]; MKK7 0.08 μM, 1.5 h): 128.4 mP
Fluorescence Polarization ([3]; MKK7 0.08 μM, 3 h): 115.2 mP
Fluorescence Polarization ([3]; MKK7 0.2 μM, 0 h): 135.3 mP
Fluorescence Polarization ([3]; MKK7 0.2 μM, 0.5 h): 132.1 mP
Fluorescence Polarization ([3]; MKK7 0.2 μM, 1 h): 121.9 mP
Fluorescence Polarization ([3]; MKK7 0.2 μM, 1.5 h): 113.8 mP
Fluorescence Polarization ([3]; MKK7 0.2 μM, 3 h): 104.7 mP
Fluorescence Polarization ([3]; MKK7 0.5 μM, 0 h): 135.3 mP
Fluorescence Polarization ([3]; MKK7 0.5 μM, 0.5 h): 125.5 mP
Fluorescence Polarization ([3]; MKK7 0.5 μM, 1 h): 115.3 mP
Fluorescence Polarization ([3]; MKK7 0.5 μM, 1.5 h): 108.8 mP
Fluorescence Polarization ([3]; MKK7 0.5 μM, 3 h): 106.6 mP
Fluorescence Polarization ([3]; MKK7 1.0 μM, 0 h): 135.7 mP
Fluorescence Polarization ([3]; MKK7 1.0 μM, 0.5 h): 119.6 mP
Fluorescence Polarization ([3]; MKK7 1.0 μM, 1 h): 112.2 mP
Fluorescence Polarization ([3]; MKK7 1.0 μM, 1.5 h): 105.3 mP
Fluorescence Polarization ([3]; MKK7 1.0 μM, 3 h): 108.4 mP
